In patent US20200040103A1:

Target: recombinant human KLK5 (human) (UniProt Q9Y337)
Experiment: cell-based or functional assay

Chain of recombinant human KLK5 (human) (Q9Y337 67-293): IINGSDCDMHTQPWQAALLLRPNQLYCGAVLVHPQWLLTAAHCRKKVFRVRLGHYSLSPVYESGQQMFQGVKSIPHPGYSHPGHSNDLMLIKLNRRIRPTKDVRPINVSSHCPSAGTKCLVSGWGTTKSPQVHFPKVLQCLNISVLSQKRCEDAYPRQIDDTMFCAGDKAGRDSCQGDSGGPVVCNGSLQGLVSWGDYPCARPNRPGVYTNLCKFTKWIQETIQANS

IC50, KLK5-induced IL-8 secretion by A549 cells: 21 nM
Substance: Spink5.Fc (Fc fusion)
